Earlier results, collected in PMC3359286.

Molecular target: hemoglobin (Homo sapiens) (UniProt P69905)
Sequence (P69905 2-142, chain 1 of 2): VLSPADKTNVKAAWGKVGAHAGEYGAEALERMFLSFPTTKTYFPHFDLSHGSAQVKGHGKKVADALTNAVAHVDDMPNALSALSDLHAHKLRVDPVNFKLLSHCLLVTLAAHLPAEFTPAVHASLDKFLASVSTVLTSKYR
Sequence (P68871 2-147, chain 2 of 2, further chain): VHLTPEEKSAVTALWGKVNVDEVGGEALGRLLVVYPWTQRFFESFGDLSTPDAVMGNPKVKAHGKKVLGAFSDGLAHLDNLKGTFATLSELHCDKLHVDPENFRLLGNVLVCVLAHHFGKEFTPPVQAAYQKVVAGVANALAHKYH

## IsdB (from UniProt A7X146)
  Kd: 55 nM
